In the experiment the target is human cyclophilin A (human) (UniProt P62937). Briefly: SPR. A general note: Surface plasmon resonance follows binding to a sensor surface in real time, without labels.

Read-outs that look alike come from different tables or passages of the source.

Sequence of human cyclophilin A (human) (P62937 whole entry): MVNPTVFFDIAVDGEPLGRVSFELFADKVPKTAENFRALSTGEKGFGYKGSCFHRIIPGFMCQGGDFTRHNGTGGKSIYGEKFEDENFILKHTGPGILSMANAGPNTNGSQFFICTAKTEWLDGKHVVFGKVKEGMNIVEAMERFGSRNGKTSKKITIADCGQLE
Sequence of HIV-1 capsid (CA) (O93182 133-363): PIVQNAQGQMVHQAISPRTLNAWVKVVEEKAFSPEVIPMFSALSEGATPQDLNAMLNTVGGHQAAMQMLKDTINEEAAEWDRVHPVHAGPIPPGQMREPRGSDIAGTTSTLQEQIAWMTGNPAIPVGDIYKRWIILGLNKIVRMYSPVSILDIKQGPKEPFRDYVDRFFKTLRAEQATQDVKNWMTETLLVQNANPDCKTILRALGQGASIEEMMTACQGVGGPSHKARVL

With HIV-1 capsid (CA) (from UniProt O93182), the Kd (usually the free concentration of one partner at which half of the binding sites on the other are occupied at equilibrium, for simple one-to-one binding) (cited from earlier work) is 16 µM.

Take “Vpr^75-90 (R76Q, V83I, R80A, T84I) (peptide)”: the Kd was 2.7 µM, the off-rate constant (koff) (commonly a measure of how fast the partners let go of each other) was 0.095 s⁻¹ and the association rate constant (kon) (usually the rate constant with which the complex forms) amounted to 42000 M⁻¹ s⁻¹.

On to Vpr^75-90 (R76Q, V83I, T84I) (peptide), for which the Kd came out at 4.7 µM, the koff is 0.071 s⁻¹ and the kon came out at 16000 M⁻¹ s⁻¹.

(Values after article PMC3269379, “The Host-Pathogen interaction of human cyclophilin A and HIV-1 Vpr requires specific N-terminal and novel C-terminal domains” (BMC Structural Biology, 2011).)
